These results are taken from US20240309087A1 (SHANGHAI JUNSHI BIOSCIENCES, published 2024).

What is called IC50 is the concentration needed to halve the response being measured. By Kd is commonly meant the concentration at which binding is half-saturated. As usually defined, the EC50 is the concentration that produces a half-maximal response.

Substitutions are numbered along the chain they refer to.

Experiment [1] addresses T1, hCD112R mFC recombinant protein (human; murine, UniProt Q6DKI7 41-160).
T1 construct: range 41-160; expressed in 293E cells; also called hCD112R ECD mFC; hCD112R-ECD-mFC; not shown: murine IgG2a Fc domain (MX2-mFc vector)
T1 sequence (looked up): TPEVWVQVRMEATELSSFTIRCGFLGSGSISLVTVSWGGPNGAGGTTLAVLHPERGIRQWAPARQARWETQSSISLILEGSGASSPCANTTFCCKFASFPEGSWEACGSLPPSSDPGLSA
Description: FACS competition, hCD112R mFc on CHO CD112 cells. As for the experimental part: Unbound antibodies were then washed with a staining buffer and the cells were incubated with 1% (v/v) goat anti-mouse IgG Fc fluorescent secondary antibodies (Jackson ImmunoResearch) prepared in a staining buffer at 4° C. for 30 min in the dark. Finally, the cells were collected by using a flow cytometer, and the fluorescent antibodies bound to the cell surface were detected. Raw data were analyzed by using FlowJo to obtain MFI values, and a four-parameter curve fitting was performed by using GraphPad Prism software to obtain IC₅₀ values.

In experiment [2] the target is T1, hCD112R mFC recombinant protein. Description: Biacore T200, antibody captured, hCD112R mFc injected. As for the experimental part: Biacore T200 was used to assay the binding affinity of the anti-CD112R hybridoma antibodies for the recombinant hCD112R mFc protein. […] antibody fragments (Jackson ImmunoResearch) were coupled to the surface of a CM5 chip, and the anti-CD112R hybridoma antibodies were each captured by using the chip, after which recombinant hCD112R mFc proteins at different concentrations were injected into the CM5 chip.
Background: SPR reads the build-up and loss of mass on a sensor chip optically.

Experiment [3] deals with T2, recombinant cynomolgus monkey CD112R antigen (cynomolgus monkey, UniProt A0A2K5WVV8 1-322).
T2 construct: bought
T2 sequence: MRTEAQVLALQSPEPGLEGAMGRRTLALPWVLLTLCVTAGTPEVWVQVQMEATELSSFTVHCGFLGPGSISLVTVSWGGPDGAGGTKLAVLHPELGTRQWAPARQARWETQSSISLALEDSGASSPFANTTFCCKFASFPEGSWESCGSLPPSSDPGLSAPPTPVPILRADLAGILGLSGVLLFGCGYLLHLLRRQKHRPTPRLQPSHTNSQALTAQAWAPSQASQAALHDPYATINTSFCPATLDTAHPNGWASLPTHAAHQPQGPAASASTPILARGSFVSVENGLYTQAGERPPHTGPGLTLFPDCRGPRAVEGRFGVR
Description: ELISA, coated cynomolgus monkey CD112R; EC50 Ref/EC50 antibody. As for the experimental part:
(§1) A plate was coated with a recombinant cynomolgus monkey CD112R antigen (Acrobiosystems, Cat No. PVG-C5259) at a fixed concentration, and the chimeric anti-CD112R antibodies diluted in a gradient (initial concentration: 1 μg/mL, 2.5-fold gradient dilution, 12 concentration gradients in total) were added to bind to the antigen. Horseradish peroxidase (HRP)-conjugated mouse anti-human IgG4 Fc (Southern Biotech, 9200-05) was subjected to a 5000-fold dilution and used as a detection antibody for detection. The color development was performed with 0.1 mg/mL TMB, and finally stopped with 2 M hydrochloric acid. The plate was read at 420 nm/620 nm. EC₅₀ was obtained by fitting with a four-parameter logistic regression (4PL) model.

In experiment [4] the target is T1, hCD112R mFC recombinant protein. Description: FACS competition, hCD112R mFc on CHO CD112 cells. As for the experimental part: (§2) Cells CHO CD112 overexpressing human CD112 were co-incubated with a hCD112R mFc protein solution (5 μg/mL) prepared in a staining buffer (PBS+1% FBS), and the chimeric anti-CD112R antibodies or the control antibodies at different concentrations (initial concentration: 100 μg/mL, 3-fold dilution, 10 concentration gradients) at 4° C. for 30 min. Unbound antibodies were then washed with a staining buffer and the cells were incubated with 1% (v/v) goat anti-mouse IgG Fc fluorescent secondary antibodies (Jackson ImmunoResearch) prepared in a staining buffer at 4° C. for 30 min in the dark. Finally, the cells were collected by using a flow cytometer (BD Canto II), and the fluorescent antibodies bound to the cell surface were detected. Raw data were analyzed by using FlowJo to obtain MFI values, and a four-parameter curve fitting was performed by using GraphPad Prism software to obtain IC₅₀ values. The positive control and the negative control were Ref (anti-CD112R antibody, University of Colorado, obtained by expression and purification according to the sequences in US20170240613) and the anti-KLH hu-IgG4 antibody, respectively.
As shown in FIG. 5 (a and b) and Table 8, the following 13 chimeric antibodies were all capable of effectively blocking the binding of the CD112R protein to CHO-CD112 cells.
The source holds these as a separate data set.

In experiment [5] the target is T2, recombinant cynomolgus monkey CD112R …. Put plainly: ELISA, coated cynomolgus monkey CD112R. As for the experimental part: as §1
In general terms: An ELISA detects its analyte on a solid surface through an enzyme-linked reagent.

Experiment [6] has as its target T1, hCD112R mFC recombinant protein. Description: FACS competition, hCD112R mFc on CHO CD112 cells; ratio Ref/antibody. As for the experimental part: as §2
Experiment [7] shares this target. Put plainly: FACS blocking: hCD112R mFc (5 µg/mL) binding to human CD112 on CHO CD112 cells, MFI-APC; unit from the axis (µg/mL), Table 8 says ng/ml. As for the experimental part: as §2
The target in experiment [8] is T3, human CD112R on CHO-CD112R cells (human, UniProt Q6DKI7 41-326).
T3 construct: whole, on cells; also called hCD112R; PVRIG
T3 sequence (looked up): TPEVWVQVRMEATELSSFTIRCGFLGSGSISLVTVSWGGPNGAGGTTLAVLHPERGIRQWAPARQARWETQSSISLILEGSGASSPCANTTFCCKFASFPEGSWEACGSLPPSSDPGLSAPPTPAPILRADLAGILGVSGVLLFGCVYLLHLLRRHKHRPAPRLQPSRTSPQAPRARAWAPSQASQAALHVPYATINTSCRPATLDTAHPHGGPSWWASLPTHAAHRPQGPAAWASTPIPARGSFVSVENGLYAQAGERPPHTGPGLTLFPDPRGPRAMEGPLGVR
Put plainly: FACS on CHO-CD112R cells. As for the experimental part:
(§3) CHO-CD112R cells (constructed in-house by Junshi, the amino acid sequence of CD112R in the construction of stable cell lines overexpressing CD112R comprises amino acids at positions Met1-Arg326 under NCBI accession No. Q6DKI7) overexpressing human CD112R were incubated with each of the chimeric anti-CD112R antibodies at different concentrations (initial concentration: 50 μg/mL, 5-fold dilution, 12 concentration gradients in total) at 4° C. for 30 min, and then washed and incubated with a fluorescence-labeled secondary antibody at 4° C. for 30 min in the dark. Finally, the cells were collected by using a flow cytometer (BD Canto II), and the fluorescent antibodies bound to the cell surface were detected. Raw data were analyzed by using FlowJo to obtain MFI values, the antibody dose-dependent binding curves were fitted by using GraphPad (FIG. 3, a and b) and EC₅₀ was calculated (Table 3). The positive control and the negative control were Ref (anti-CD112R antibody, University of Colorado, obtained by expression and purification according to the sequences in US20170240613) and anti-KLH hu-IgG4 antibody, respectively.

The target of experiment [9] is T3, human CD112R on CHO-CD112R cells. Description: FACS on CHO-CD112R cells; EC50 Ref/EC50 antibody. As for the experimental part:
as §3

Experiment [10] deals with T4, human CD112R on Jurkat CD112R effector cells (human, UniProt Q6DKI7 1-326).
T4 sequence (looked up): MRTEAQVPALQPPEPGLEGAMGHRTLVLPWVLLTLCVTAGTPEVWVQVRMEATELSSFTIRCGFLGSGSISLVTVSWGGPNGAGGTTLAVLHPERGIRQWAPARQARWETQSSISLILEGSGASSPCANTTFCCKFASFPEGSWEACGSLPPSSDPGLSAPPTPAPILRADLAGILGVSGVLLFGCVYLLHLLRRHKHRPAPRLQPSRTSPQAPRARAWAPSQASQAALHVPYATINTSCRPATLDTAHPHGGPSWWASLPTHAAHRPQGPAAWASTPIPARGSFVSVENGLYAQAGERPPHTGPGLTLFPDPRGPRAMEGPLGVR
Description: cell-based or functional assay.

B1: 6C6.1 (antibody, V domains shown)
VH: EVQLQQSGPELVRPGASVRISCKASGYTFTDYNMNWVKQSHGKSLEWIGYIYPYNGGAGYNQNFKNKATLTVDTYSRAAYMELRSLTSEDSAVYYCARERGMQRDYFDYWGQGTILTVSS
VL: DIQMTQSPASLSVSVGETVTITCRTSENIYSNLAWYQQKQGKSPQLLVYAATNLADGVPSRFSGSGSGTQFSLKINSLQSGDFGSYFCQHFWGTPYTFGGGTKLEIK
notes: murine hybridoma antibody
As for B1, the IC50 in experiment [1] was 0.0229 µg/mL. Further, the Kd in experiment [2] came to 0.0205 nM.

B2: 6A6.1 (antibody, V domains shown)
VH: EVQLQQSGAELVRSGTSVTLSCTASGFNIRDYFIHWVKQRPEQGLEWIGWIIPASGDTDCAPIFQGKATLTADTFSNTAYLHLNSLTSEDTAVYYCNTWVWSPYAVDYWGQGTSVTVSS
VL: DVLMTQTPLSLPVSLGDQTSISCRSSQSIVHSNGNTYLHWYLQKPGQSPKLLIYKVSNRFSGVPDRFSGSGSGTDFTLKISRVEAEDLGVYYCFQGSHVPWTFGGGTRLEIK
notes: murine hybridoma antibody
For B2, the 50% inhibitory concentration (IC50) in experiment [1] was 0.145 µg/mL. In addition, the Kd in experiment [2] came to 0.0174 nM.

B3: Chi-69 (antibody, V domains shown)
VH: DVQLVESGGGLVKLGGSLKLSCVASGFTFSSYHMSWIRQTPEKRLELVAAINSNDINTYYLDTVKGRFTISRDIAKNTLHLQMSSLKSEDTALYYCARHEDYYGFAMDYWGQGTSVTVSS
VL: SIVMTQTPKFLLVSAGDRVTITCKASQSVSNDVAWYQEKPGQSPKLLMYYVSHRFTGVPDRFTGSGYGTDFTFTINTVQAEDLAVYFCHQAYRSPWTFGGGTKLEIK
notes: chimeric
Take B3: the “Relative activity (%)” value in [3] worked out at 88.4%; in experiment [6], 110%; in experiment [9], 1630%. Further, the IC50 in [4] and in experiment [7] was 0.959 µg/mL in each case. Also, the EC50 in experiment [5] was 0.00474 µg/mL; in experiment [8], 0.262 µg/mL. For the same molecule, the “EC50, CD112R/CD112 reporter” value in experiment [10] stood at 0.0187 µg/mL. Also, in experiment [10], the “Relative activity (%), EC50 Ref/EC50 antibody” value worked out at 1390%.

B4: Chi-61 (antibody, V domains shown)
VH: DVKLVESGGGLVKLGGSLKLSCAASGFTFSSYHMSWVRQTPEKRLELVAAISRDGDSTYYPDTVKGRFTISRDDAENTLYLQMSSLKSEDTALYYCSRHEDYFGFAMDSWGQGTSVTVSS
VL: B3 VL
notes: chimeric
B4: the “Relative activity (%)” value in [3] is 83.8%; in experiment [6], 110%; in experiment [9], 3990%. Besides, the IC50 in [4] and in [7] was 0.965 µg/mL in each case. Also, the EC50 came to 0.005 µg/mL in [5] and 0.107 µg/mL in experiment [8]. For the same molecule, in [10], the “EC50, CD112R/CD112 reporter” value was 0.019 µg/mL. In [10], the “Relative activity (%), EC50 Ref/EC50 antibody” value amounted to 1590%.

B5: Chi-70 (antibody, V domains shown)
VH: B3 VH
VL: B3 VL with E38Q, H53N, H89Q
notes: chimeric
For the molecule B5, the “Relative activity (%)” value turned out to be 109% in experiment [3], 150% in experiment [6] and 1640% in [9]. The IC50 in experiment [4] and in experiment [7] was 0.708 µg/mL in each case. The EC50 was 0.00383 µg/mL in experiment [5] and 0.26 µg/mL in experiment [8]. Besides, the “EC50, CD112R/CD112 reporter” value in [10] was found to be 0.0139 µg/mL. In [10], the “Relative activity (%), EC50 Ref/EC50 antibody” value came to 1870%.

B6: 6D2.1 (antibody, V domains shown)
VH: EVQLQQSGPELVKPGASVKISCKASGYTFTDYNIHWVKQSHGKRPDWIGYNYPYNGGAGYNQNFRSRATLTVDKFSSTAYMELRSLTSEDSAVYYCAGEEVRRGPFYFWGQGTSVTVSS
VL: DIQMTQSPDSLSASVGETVTITCRTSENIYSFLVWYQQKQGKSPQLLVYNAKTLAEGVPSRFSGSGSGTQFSLKINSLQPEDFGTYYCQHYYGTPYTFGGGTKLEIK
notes: murine hybridoma antibody
For B6, the IC50 in [1] was determined as 0.272 µg/mL. For the same molecule, in [2], the dissociation constant (Kd) was 0.0134 nM.

B7: 8D3.1 (antibody, V domains shown)
VH: QIQLVQSGPELKKPGETVKISCKASGYTFTDYSMHWVKQAPGKGLKWVGWISTETAQPTYADDFRGRFAFSLETSASTAYLQINNLRNEDTATYFCATGNYGWYFSVWGAGTTVTVSS
VL: ENVLTQSPAIMSASPGEKVTMTCRATSGVSSSYLFWYQQKSGASPKIWIYSTSNLASGVPTRFSGSGSGTSYSLTISSVEAEDAATYYCQQYSGYPYTFGGGTKLEIK
notes: murine hybridoma antibody
Turning to B7, in experiment [1], the IC50 turned out to be 0.148 µg/mL. Also, in experiment [2], the Kd was 0.0158 nM.
